In the PETadex activity labels (doi:10.1016/j.eti.2025.104587):

Assays:
PET = assay: Proxy for plastic degradation [Weight/mass loss]; details: pH 7.5; 0 h
pNPB = assay: Proxy for plastic degradation [p-nitrophenol (pNP) release] (% relative activity)

B1: unnamed (protein)
chain: MKSVLARARLVAAATAMLAFAAWALVSAAPAVEAQSNPYQRGPNPTRSALTADGPFSVSTYSVSGLSVSGFGGGVIYYPTGTTLTFGGIAMSPGYTASSSSLAWLGRRLASHGFVVLVIDTITRLDFPDSRASQLSAALNYLRTSSPSTVRARLDGTRLAVAGHSMGGGGTLRVSEQLPSLKAGVPLTPWHTDKTFNTSVPQLIVGAENDSVAPVSQHAIPFYQNLPSTTPKVYVELNNASHFAPNTSNATISVYTISWMKLWVDNDTRYRPFLCNVSDASLSDFRSNNRHCQ
- Proxy for plastic degradation (PET): 0%
- Proxy for plastic degradation (pNPB; pH 4): 0
- Proxy for plastic degradation (pNPB; pH 5): 34.5
- Proxy for plastic degradation (pNPB; pH 6.5): 75
- Proxy for plastic degradation (pNPB; pH 7): 86.5
- Proxy for plastic degradation (pNPB; pH 7.5): 99.5
- Proxy for plastic degradation (pNPB; pH 7.5, 30 °C): 39.5
- Proxy for plastic degradation (pNPB; pH 7.5, 40 °C): 41
- Proxy for plastic degradation (pNPB; pH 7.5, 50 °C): 48
- Proxy for plastic degradation (pNPB; pH 7.5, 60 °C): 72
- Proxy for plastic degradation (pNPB; pH 7.5, 70 °C): 99
- Proxy for plastic degradation (pNPB; pH 7.5, 80 °C): 69.5
- Proxy for plastic degradation (pNPB; pH 9): 60.5
- Proxy for plastic degradation (pNPB; pH 10): 45.5
